B1: Pistol ribozyme (parent)
chain: GGGUCGUUGUUCCAUAAUCGCGUGGAUAUGGCACGCAAGUUUCUACCGGGCACCGUAAAUGUCCGACUGGAGCCGUUCGGGCGGCUAUAAACAGACCUCAGGCCCGAAGCGUGGCGGCACCUGCCGCCGGUGGUAAAAAAGAUCGGAAGAGCACACGUCU

Variants of: B1
Assay: aptazyme ON/OFF ratio, guanine; higher = stronger switching; co-transcriptional cleavage with and without guanine

| Variant | aptazyme ON/OFF ratio |
| --- | --- |
| U7G U8C G9C U10C U11C C12G C13A | 1.09 |
| U7G U8C G9C U10C U11C C12G C13G | 1.04 |
| U7G U8C G9C U10C C13U | 1.15 |
| U7G U8C G9C U10C C13A | 1.06 |
| U7G U8C G9C U10C C13G | 1.21 |
| U7G U8C G9A U10G U11C C12U | 1.09 |
| U7G U8C G9C U11C C12A | 1.9 |
| U7G U8C G9C U11C C12U | 1.78 |
| U7G U8C G9C U11C C12G | 1.34 |
| U7G U8C G9C U10G U11A C12G C13U | 1.1 |
| U7G U8C G9C U10G U11A C12G C13A | 1.07 |
| U7G U8C G9C U10G U11A C12G C13G | 1.21 |
| U7G U8C G9C U10C C12A C13G | 1.1 |
| U7G U8C G9C U10C C12A C13U | 1.04 |
| U7G U8C G9C U10C C12A C13A | 1.08 |
| U7G U8C G9C U10A C12G | 1.25 |
| U7G U8C G9C U10A C12U | 1.06 |
| U7G U8C G9C U10A C12A | 1.09 |
| U7G U8C G9C U10A U11A C13U | 1.23 |
| U7G U8C G9C U10A U11A C13A | 1.09 |
| U7G U8C G9C U10A U11A C13G | 1.1 |

| Variant | aptazyme ON/OFF ratio |
| --- | --- |
| U7G U8C G9C U10G C12G | 1.12 |
| U7G U8C G9C U10G C12A | 1.13 |
| U7G U8C G9C U10G C12U | 1.14 |
| U7G U8C G9C U10G U11C C12U C13A | 1.26 |
| U7G U8C G9C U10G U11C C12U C13U | 1.4 |
| U7G U8C G9C U10G U11C C12U C13G | 1.32 |
| U7G U8C G9C U10C U11A C12U C13U | 1.05 |
| U7G U8C G9C U10C U11A C12U C13A | 1.04 |
| U7G U8C G9C U10C U11A C12U C13G | 1.12 |
| U7G U8C G9A U11C C12U C13G | 1.12 |
| U7G U8C G9A U11C C12U C13A | 1.15 |
| U7G U8C G9A U11C C12U C13U | 1.08 |
| U7G U8C G9C U10G C13G | 1.26 |
| U7G U8C G9C U10G C13U | 1.33 |
| U7G U8C G9C U10G C13A | 1.3 |
| U7G U8C G9C U10C C12U C13A | 1.07 |
| U7G U8C G9C U10C C12U C13G | 1.13 |
| U7G U8C G9C U10C C12U C13U | 1.04 |
| U7G U8C G9A U11A C13U | 1.21 |
| U7G U8C G9A U11A C13G | 1.03 |
| U7G U8C G9A U11A C13A | 1.14 |

| Variant | aptazyme ON/OFF ratio |
| --- | --- |
| U7G U8C G9C U10A U11G C12G C13A | 1.08 |
| U7G U8C G9C U10A U11G C12G C13U | 1.1 |
| U7G U8C G9C U10A U11G C12G C13G | 1.12 |
| U7G U8C G9A U11A C12A C13G | 1.07 |
| U7G U8C G9A U11A C12A C13U | 1.11 |
| U7G U8C G9A U11A C12A C13A | 1.08 |
| U7G U8C G9C U10G U11G C12G C13U | 1.09 |
| U7G U8C G9C U10G U11G C12G C13G | 1.08 |
| U7G U8C G9C U10G U11G C12G C13A | 1.06 |
| U7G U8C G9C U10C U11G C12G C13G | 1.09 |
| U7G U8C G9C U10C U11G C12G C13A | 1.1 |
| U7G U8C G9C U10C U11G C12G C13U | 1.05 |
| U7G U8C G9C U10A U11A C12A C13U | 1.11 |
| U7G U8C G9C U10A U11A C12A C13A | 1.12 |
| U7G U8C G9C U10A U11A C12A C13G | 1.09 |
| U7G U8C G9C U10C C12G | 1.1 |
| U7G U8C G9C U10C C12U | 1.16 |
| U7G U8C G9C U10C C12A | 1.13 |
| U7G U8C G9C U10C U11C | 1.05 |
| U7G U8C G9C U10C U11A | 1.39 |
| U7G U8C G9C U10C U11G | 1.05 |

| Variant | aptazyme ON/OFF ratio |
| --- | --- |
| U7G U8C G9C U11G C12U C13A | 1.3 |
| U7G U8C G9C U11G C12U C13U | 1.37 |
| U7G U8C G9C U11G C12U C13G | 1.33 |
| U7G U8C G9C U10G U11C C13U | 1.34 |
| U7G U8C G9C U10G U11C C13A | 1.15 |
| U7G U8C G9C U10G U11C C13G | 1.36 |
| U7G U8C G9C U11A C12G C13A | 1.13 |
| U7G U8C G9C U11A C12G C13U | 1.1 |
| U7G U8C G9C U11A C12G C13G | 1.16 |
| U7G U8C G9A U11G C12A C13G | 1.1 |
| U7G U8C G9A U11G C12A C13U | 1.12 |
| U7G U8C G9A U11G C12A C13A | 1.1 |
| U7G U8C G9C U10A U11G C12U C13G | 1.24 |
| U7G U8C G9C U10A U11G C12U C13A | 1.22 |
| U7G U8C G9C U10A U11G C12U C13U | 1.17 |
| U7G U8C G9C U10C C12G C13U | 1.08 |
| U7G U8C G9C U10C C12G C13A | 1.14 |
| U7G U8C G9C U10C C12G C13G | 1.11 |
| U7G U8C G9C C12U C13U | 1.21 |
| U7G U8C G9C C12U C13A | 1.1 |
| U7G U8C G9C C12U C13G | 1.12 |

— the RNAGym collection of RNA variant scans (doi:10.1021/acssynbio.7b00057)
